Experimental data published in the DeepSol protein solubility set.

assay: soluble on expression in E. coli; label from the status in PepcDB or PDB records

| Sequence | soluble on expression in E. coli |
| --- | --- |
| MGHHHHHHSHMFVYLNPNPKNTLRIDAEALTETRRLAARAWDLKYQMTKQGMHQRMLRAELDNLEILERGHSAALTTNLSLLANVLLDQPAPPDPTQGEEKGLPPSSRVESRTEGVYTVTVYPGDPAFEIQDSLPQKIWPMLYLHQQRWLPSYGPWHIRFTSSAMQLRNFPRSLRGQANFQNSMSLKLITALTDVISRISLDFYSDLRHLSDTMSALCLIAAYYSEKNQTPLPTNLPELLGNITAKVTLLVRDLKRAAANKGFNFNRNSSSLLPAQGGLYSNDFFQEHALYSLFRTAGMLASSSSPEYPRADSVLAITAAVFGDNIPPFAAYQWNLRSGLKALESLILLFLLLDVNVPATSNKRLHLEALLGESYSKGSRPPARRTGPLDAGGSVFSFLMENYLVPTLLHRPTTNMSALFPGLYLLQLEFSSGASTPHAIHLTDVKFRDIFNILVQSNVFQDSQELIRAKQSLRVSCETGSGNLLESLSPGTTMRDIIRKEFMAQDVYDYVYFCVLGALPVTVAVV | not soluble |
| MGHHHHHHSHMGITTNLISEVSKFYYALKYHAKFMSLGELGCYASHYSLWEKCIELNEAICILEDDITLKEDFKEGLDFLEKHIQELGYIRLMHLLYDASVKSEPLSHKNHEIQERVGIIKAYSEGVGTQGYVITPKIAKVFLKCSRKWVVPVDTIMDATFIHGVKNLVLQPFVIADDEQISTIARKEEPYSPKIALMRELHFKYLKYWQFV | not soluble |
| MGHHHHHHSHMKQWKEKKKKKKPIQEPEVPQIDVPNLKPIFGIPLADAVERTMMYDGIRLPAVFRECIDYVEKYGMKCEGIYRVSGIKSKVDELKAAYDREESTNLEDYEPNTVASLLKQYLRDLPENLLTKELMPRFEEACGRTTETEKVQEFQRLLKELPECNYLLISWLIVHMDHVIAKELETKMNIQNISIVLSPTVQISNRVLYVFFTHVQELFGNVVLKQVMKPLRWSNMATMPTLPETQAGIKEE | soluble |
| MGHHHHHHSHMKSREGSVHPQVEIANLLLIQSSLANLPPGPCWFCLASPEVEKHLVVNIGTHCYLALAKGGLSDDHVLILPIGHYQSVVELSAEVVEEVEKYKATLRRFFKSRGKWCVVFERNYKSHHLQLQVIPVPISCSTTDDIKDAFITQAQEQQIELLEIPEHSDIKQIAQPGAAYFYVELDTGEKLFHRIKKNFPLQFGREVLASEAILNVPDKSDWRQCQISKEDEETLARRFRKDFEPYDFTLDD | not soluble |
| MGHHHHHHSHMKTRQAFYLHTTKLTRIARRLCREILRPWHAARHPYLPINSAAIKAECTARLPEASQSPLVLKQAVRKPLEAVLRYLETHPRPPKPDPVKSVSSVLSSLTPAKVAPVINNGSPTILGKRSYEQHNGVDGNMKKRLLMPSRGTYLGLANHGQTRHMGPSRNLLLNGKSYPTKVRLIRGGSLPPVKRRRMNWIDAPDDVFYMATEETRKIRKLLSSSETKRAARRPYKPIALRQSQALPPRPPPPAPVNDEPIVIED | not soluble |
| MGHHHHHHSHMLKDFLKEQGFEVRENHEVDAVIIGQDKEIEFKKIKNATSAVFLKGAKIIPVNLSKIVKDSDGLYFPGSGSYAYMFKHATNYEGEIPNLGKPSKEFINLALEGLPREKVFLISDDIYTDLMGAKELGIGTIFMTTGKYKQEELKKANFKPDYVFHSLKELMREIKKWLS | not soluble |
| MGHHHHHHSHMLRVLLSAQTSPARLSGLLLIPPVQPCCLGPSKWGDRPVGGGPSAGPAQGLQRLLEQAKSPGELLRWLGQNPSKVRAHHYSVALRRLGQLLGSRPRPPPVEQVTLQDLSQLIIRNCPSFDIHTIHVCLHLAVLLGGTEVGPALWATELPAPGTAVYALP | not soluble |
| MGHHHHHHSHMPDHGDWTYEEQFKQLYELDGDPKRKEFLDDLFSFMQKRGTPVNRIPIMAKQVLDLFMLYVLVTEKGGLVEVINKKLWREITKGLNLPTSITSAAFTLRTQYMKYLYPYECEKRGLSNPNELQAAIDSNRREGRR | soluble |
| MGHHHHHHSHMPPGGHIESGASFSPSAGSDGDKGLKPREEGEAPEAGPCLASQLAPVQWVAPPRLLLRLIFIDLPALLIAPTAESSAEEDEEPHDEGQSSEDQAPIANGLIVIVERVHVPLGAAATVHRQPSHFPR | not soluble |
| MGHHHHHHSHMRLPSKPYSTLPIFSLGPSALQRGESSMRSEKPSTAHHRPLRSIARFSSKSKSMDKSDEELQFPKELMEDWSTMEVCVDCKKFISEIISSSRRSLVLANKRARLKRKTQSFYMSSPGPSEYCPSERTISEI | not soluble |
| MGHHHHHHSHMSEFMQRFADLRDRKAYAEIVDALPYVKLMGTSMAEDEQGELRFELPFLQRNVGNTTLPALHGGLIGGFMESAAMIHLMWNRESLEAPKIVDFSLDYLRPGRPQTLFAQCEITKQGKRVAHVLIEAWQDDRSKPVAVARAHFLLTN | soluble |
| MGHHHHHHSHMSKESVTVAGIDCGTNSIRLKIARVDADGMHEVVPRILRVIRLGQDVDKTHRFADEALERAYVAAREFAGVIAEHPIDGLRFVATSATRDAENREEFEDEIERILGVRPEVIPGTEEADLSFLGATSVVNRDDLPAPYLVVDLGGGSTELVIGGDGVSAPTTQVQGAFSMNIGSVRMTERHLTNDPPTQTQIDEAVADVDEHIDEAFRTVDAGKARTIIGVSGTVTTMTALAMGLKEYDHTVVDGHRLSFEDAYAVDDKFLRMTRAERREYKTIHPGRIDVVGGGAVVWSRVLARVSEAAKADHGEAIDSFVASEHGLLDGIVLDYGRRLLAQ | soluble |
| MGHHHHHHSHMSTKVPIYLKRGSRKGKKEKLRDLLSSDMISPPLGDFRHTIHIGSGGGSDMFGDISFLQGKFHLLPGTMVEGPEEDGTFDLPFQFTRTATVCGRELPDGPSPLLKNAISLPVIGGPQALTLPTAQAPPKPPRLHLETPQPSPQEGGSVDIWRIPETGSPNSGLTPESGAEEPFLSSASSLLSLHVDLGPSILDDVLQIMDQDLDSMQIPT | soluble |
| MGHHHHHHSHMTLEEFSAGEQKTERMDKVGDALEEVLSKALSQRTITVGVYEAAKLLNVDPDNVVLCLLAADEDDDRDVALQIHFTLIQAFCCENDINILRVSNPGRLAELLLLETDAGPAASEGAEQPPDLHCVLVTNPHSSQWKDPALSQLICFCRESRYMDQWVPVINLPER | not soluble |
| MGHHHHHHSHMVEFPLPPHLTCAVIKAASLDCEDLLLPIAAMLSVENVFIRPVDPEYQKEAEQRHRELAAKAGGFNDFATLAVIFEQCKSSGAPASWCQKHWIHWRCLFSAFRVEAQLRELIRKLKQQSDFPKETFEGPKHEVLRRCLCAGYFKNVARRSVGRTFCTMDGRGSPVHIHPSSALHEQETKLEWIIFHEVLVTTKVYARIVCPIRYEWVRDLLPKLHEFNAHDLSSVARREVREDARRRWTNKENVKQLKDGISKDVLKKMQRRNDDKSISDARARFLERKQQRTQDHSDTRKETG | not soluble |
| MGHHHHHHSHMVKFKVIALAALMGISGMAAQANELPDGPHIVTSGTASVDAVPDIATLAIEVNVAAKDAATAKKQADERVAQYISFLELNQIAKKDISSANLRTQPDYDYQDGKSILKGYRAVRTVEVTLRQLDKLNSLLDGALKAGLNEIRSVSLGVAQPDAYKDKARKAAIDNAIHQAQELANGFHRKLGPVYSVRYHVSNYQPSPMVRMMKADAAPVSAQETYEQAAIQFDDQVDVVFQLEPVDQQPAKTPAAQ | soluble |
| MGHHHHHHSHMWQAISRLLSEQLGEGEIELRNELPGGEVHAAWHLRYAGHDFFVKCDERELLPGFTAEADQLELLSRSKTVTVPKVWAVGADRDYSFLVMDYLPPRPLDAHSAFILGQQIARLHQWSDQPQFGLDFDNALSTTPQPNTWQRRWSTFFAEQRIGWQLELAAEKGIAFGNIDAIVEHIQQRLASHQPQPSLLHGDLWSGNCALGPDGPYIFDPACYWGDRECDLAMLPLHTEQPPQIYDGYQSVSPLPADFLERQPVYQLYTLLNRARLFGGQHLVIAQQSLDRLLAA | soluble |
| MGHHHHHHSHPKQEKLLSLAGDSLFWSEADVVQATDDFNQNRKISQGTFADVYRGHRHGKPFVFKKLRETACSSPGSIERFFQAELQICLRCCHPNVLPVLGFCAARQFHSFIYPYMANGSLQDRLQGQGGSDPLPWPQRVSICSGLLCAVEYLHGLEIIHSNVKSSNVLLDQNLTPKLAHPMAHLCPVNKRSKYTMMKTHLLRTSAAYLPEDFIRVGQLTKRVDIFSCGIVLAEVLTGIPAMDNNRSPVYLKDLLLSDIPSSTASLCSRKTGVENVMAKEICQKYLEKGAGRLPEDCAEALATAACLCLRRRNTSLQEVCGSVAAVEERLRGRETLL | not soluble |
| MGHHHHHHSHPPEKHLGIYSVLPNHKADAVLSMPSSVTSGLHVQPALAVSMDFSTYGGLLPQGFIQRELFSKLGELAVGMKSESRTIGEQCSVCGVELPDNEAVEQHRKLHSGMKTYGCELCGKRFLDSLRLRMHLLAHSAGAKAFVCDQCGAQFSKEDALETHRQTHTGTD | soluble |
| MGHHHHHHSHRASRKICFVCKKKGAAINCQKDQCLRNFHLPCGQERGCLSQFFGEYKSFCDKHRPTQNIQHGHVGEESCILCCEDLSQQSVENIQSPCCSQAIYHRKCIQKYAHTSAKHFFKCPQCNNRKEFPQEMLRMGIHIPDR | not soluble |
| MGIDYNRWWHLKDETLGEELKGYIKMIEEDYLVYSGTTSQLHVSKLSNGSVNSIVNEILEQQGSWSIIYYNQKLKKLFIGRDVFGRQSLVFNFESMIFGCRTKPETSGKWIEIPFGQVTVFSLDSTDPVIYSYLDEYPENVLDGYFSGSDISRIVVNKKHGLLNVSRSTGGEIDSFNTKDLFQKVIDATKILLKNYHESHVAVCLSGGVDSTFVAHVVHSSVPENMQIDLINVAFGNSEKECEQAPDRKRARKALESFRTAYPTRQFRLILVNVDSQTLEVNRKESISDAAQPASSVLDDSLSCVLWFAVRAEGVDSENQQSVRSPATTCLLGSGADELLAGYARHRTRFEKEQIPENVAEECENELRRLGSRNGGRDARVAAQLGKTILSPLLEDTVVTWLNALPVDSKWDLSLPRGVGEKQLLRETVKMLGSPYDAPKQAMQFGSRMAKMSNAGDNSIKGSDKSPHLLKTDVN | not soluble |
| MGIFSRFADIVNSNVTSLLDKAENPEKMIRLIIQEMEDTLVEVRTASAKALADKKELTRKISSIEAQVADWQDKASLALLKQREDLARSALIEKQKVQDILSSLKTEFILVEESIEKLSAELIELETKLTETRARQQALVIRQQTAQHRNDIKSHTHSGKTERAMAKFEQYERRIDELDAKADSYSIGKANSLEQEFAELQAQDEIDKEIERLKEQMKKDALEHHHHHH | not soluble |
| MGIHFVDKADLWKSALLFNLKLRDRFRIAVDDHRGRATDLTAEEESALFRMLQTVAVPLIGNACHVFMNGFNRVQVYGLEKLHDALLNRPKNKPLVTVSNHVASVDDPFVIASLLPPKFLLDARNLRWTLCATDRCFKNPVTSAFSRSVKVLPISRGEGIYQQGMDIAISKLNNGGWVHIFPEGSRSRDGGKTMGSAKRGIGRLILDADTLPMVVPFVHTGMQDIMPVGASVPRIGKTVTVIIGDPIHFNDILSTEGAQHVSRKHLYDAVSSRIGQRLYDLKAQVDRVYIEQQSMMSHNAKTPSDRAAEIFHRVDWDSFGMGAQFSEESSPSSKPIGQSDDRIVRSPKRRVSPEGGVSLKIKKLMDSTEMMGFAARGLLMNEYKSRVESANVGRPLKAWREYFMNRGL | soluble |
